The source of these data is IntAct's records for PubMed 32494073.

The chains are these.
B1: Calcium uptake protein 1, mitochondrial (Homo sapiens), Q9BPX6 (parent)
chain: MFRLNSLSALAELAVGSRWYHGGSQPIQIRRRLMMVAFLGASAVTASTGLLWKRAHAESPPCVDNLKSDIGDKGKNKDEGDVCNHEKKTADLAPHPEEKKKKRSGFRDRKVMEYENRIRAYSTPDKIFRYFATLKVISEPGEAEVFMTPEDFVRSITPNEKQPEHLGLDQYIIKRFDGKKISQEREKFADEGSIFYTLGECGLISFSDYIFLTTVLSTPQRNFEIAFKMFDLNGDGEVDMEEFEQVQSIIRSQTSMGMRHRDRPTTGNTLKSGLCSALTTYFFGADLKGKLTIKNFLEFQRKLQHDVLKLEFERHDPVDGRITERQFGGMLLAYSGVQSKKLTAMQRQLKKHFKEGKGLTFQEVENFFTFLKNINDVDTALSFYHMAGASLDKVTMQQVARTVAKVELSDHVCDVVFALFDCDGNGELSNKEFVSIMKQRLMRGLEKPKDMGFTRLMQAMWKCAQETAWDFALPKQ
partner: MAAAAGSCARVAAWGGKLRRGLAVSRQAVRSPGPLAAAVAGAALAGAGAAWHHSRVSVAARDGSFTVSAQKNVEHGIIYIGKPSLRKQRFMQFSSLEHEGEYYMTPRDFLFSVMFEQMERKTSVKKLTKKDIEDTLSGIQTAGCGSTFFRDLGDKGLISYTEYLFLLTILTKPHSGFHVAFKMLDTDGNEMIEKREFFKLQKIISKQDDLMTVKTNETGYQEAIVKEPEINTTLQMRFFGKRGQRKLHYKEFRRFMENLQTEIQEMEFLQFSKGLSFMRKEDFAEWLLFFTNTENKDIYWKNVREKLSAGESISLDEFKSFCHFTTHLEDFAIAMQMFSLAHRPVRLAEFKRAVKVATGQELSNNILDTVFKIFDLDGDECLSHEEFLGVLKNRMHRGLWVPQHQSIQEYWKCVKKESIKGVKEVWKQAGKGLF
B2: Calcium uptake protein 2, mitochondrial (Homo sapiens), Q8IYU8 (parent)
chain: B1 partner

The variants in one assay derive from B1. The note with it: with micu2_human MICU2, Q8IYU8.
Take MFRLNSLSALAELAVGSRWYHGGSQPIQIRRRLMMVAFLGASAVTASTGLLWKRAHAESPPCVDNLKSDIGDKGKNKDEGDVCNHEKKTADLAPHPEEKKKKRSGFRDRKVMEYENRIRAYSTPDKIFRYFATLKVISEPGEAEVFMTPEDFVRSITPNEKQPEHLGLDQYIIKRFDGKKISQEREKFADEGSIFYTLGECGLISFSDYIFLTTVLSTPQRNFEIAFKMFDLNGDGEVDMEEFEQVQSIIRSQTSMGMRHRDRPTTGNTLKSGLCSALTTYFFGADLKGKLTIKNFLEFQRKLQHDVLKLEFERHDPVDGRITERQFGGMLLAYSGVQSKKLTAMQRQLKKHFKEGKGLTFQEVENFFTFLKNINDVDTALSFYHMAGASLDKVTMQQVARTVAKVELSDHVCDVVFALFDCDGNGELSNKEFVSIMKQRLMRGLEKPKDMGFTRLMQAMWKSAQETAWDFALPKQ [C463S]: the “effect of a mutation on the interaction” value is “with no effect”.

In the next assay the parent is B2. The note with it: with micu1_human MICU1, Q9BPX6.
On to MAAAAGSCARVAAWGGKLRRGLAVSRQAVRSPGPLAAAVAGAALAGAGAAWHHSRVSVAARDGSFTVSAQKNVEHGIIYIGKPSLRKQRFMQFSSLEHEGEYYMTPRDFLFSVMFEQMERKTSVKKLTKKDIEDTLSGIQTAGCGSTFFRDLGDKGLISYTEYLFLLTILTKPHSGFHVAFKMLDTDGNEMIEKREFFKLQKIISKQDDLMTVKTNETGYQEAIVKEPEINTTLQMRFFGKRGQRKLHYKEFRRFMENLQTEIQEMEFLQFSKGLSFMRKEDFAEWLLFFTNTENKDIYWKNVREKLSAGESISLDEFKSFCHFTTHLEDFAIAMQMFSLAHRPVRLAEFKEAVKVATGQELSNNILDTVFKIFDLDGDECLSHEEFLGVLKNRMHRGLWVPQHQSIQEYWKCVKKESIKGVKEVWKQAGKGLF [R352E], for which the “effect of a mutation on the interaction” value is “disrupting interaction strength”.
